{"source": "paper PMC4041461", "about": "“Identification and characterization of RNA guanine-quadruplex binding proteins”", "key": {"U2AF65": {"target": "U2AF65 (Homo sapiens, UniProt P26368 1-475)", "sequence (P26368 whole entry, one chain of several)": "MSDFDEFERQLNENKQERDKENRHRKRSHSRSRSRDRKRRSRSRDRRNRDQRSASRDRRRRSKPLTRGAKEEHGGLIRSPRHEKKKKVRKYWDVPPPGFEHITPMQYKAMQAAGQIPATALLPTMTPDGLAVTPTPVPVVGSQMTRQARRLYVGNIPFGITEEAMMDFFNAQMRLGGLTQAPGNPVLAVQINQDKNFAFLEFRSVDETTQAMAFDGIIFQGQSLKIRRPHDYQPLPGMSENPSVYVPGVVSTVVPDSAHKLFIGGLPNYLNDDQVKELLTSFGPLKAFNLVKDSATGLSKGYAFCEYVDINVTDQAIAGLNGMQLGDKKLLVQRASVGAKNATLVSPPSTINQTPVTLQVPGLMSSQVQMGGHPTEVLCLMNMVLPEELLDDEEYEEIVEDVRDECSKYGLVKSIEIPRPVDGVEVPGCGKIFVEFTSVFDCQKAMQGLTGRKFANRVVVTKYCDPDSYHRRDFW", "experiment": "SPR; SPR: 25 °C, 1:10 mixture of binding buffer (10 mM Tris-HCl pH 7.5, 150 mM KCl) and HBS-EP (10 mM HEPES pH 7.4, 150 mM NaCl, 3 mM EDTA, 0.005% P20), protein immobilized; pull-down: RNA on streptavidin beads blocked in 10 mM Tris-HCl pH 7.5, 100 mM KCl, 0.1 mM EDTA, 1 mM DTT, 0.01% Triton X-100, BSA, tRNA; extract 1 h at 30 °C, elution 400-2600 mM KCl", "details": "protein: recombinant, tags: N-terminal His-tag (pET28a), label: biotin"}, "Δnucleolin": {"target": "Δnucleolin (Homo sapiens, UniProt P19338 284-710, del1-283)", "sequence (P19338 284-710, stated change not applied)": "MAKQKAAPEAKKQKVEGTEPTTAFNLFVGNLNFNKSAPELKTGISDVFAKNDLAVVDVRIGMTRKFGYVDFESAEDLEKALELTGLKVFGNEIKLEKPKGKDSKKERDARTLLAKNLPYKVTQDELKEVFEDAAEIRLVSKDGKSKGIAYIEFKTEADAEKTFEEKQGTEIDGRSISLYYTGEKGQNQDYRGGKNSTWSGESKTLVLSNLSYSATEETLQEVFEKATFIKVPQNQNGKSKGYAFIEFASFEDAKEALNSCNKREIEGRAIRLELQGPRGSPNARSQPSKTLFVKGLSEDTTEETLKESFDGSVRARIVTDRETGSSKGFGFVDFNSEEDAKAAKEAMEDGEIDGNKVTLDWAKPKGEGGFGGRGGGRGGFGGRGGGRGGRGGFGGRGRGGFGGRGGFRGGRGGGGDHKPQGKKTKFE", "experiment": "SPR; SPR: 25 °C, 1:10 mixture of binding buffer (10 mM Tris-HCl pH 7.5, 150 mM KCl) and HBS-EP (10 mM HEPES pH 7.4, 150 mM NaCl, 3 mM EDTA, 0.005% P20), protein immobilized; pull-down: RNA on streptavidin beads blocked in 10 mM Tris-HCl pH 7.5, 100 mM KCl, 0.1 mM EDTA, 1 mM DTT, 0.01% Triton X-100, BSA, tRNA; extract 1 h at 30 °C, elution 400-2600 mM KCl", "details": "protein: recombinant, tags: N-terminal His-tag (pET28a), label: biotin"}, "SRSF1": {"target": "SRSF1 (Homo sapiens, UniProt Q07955 1-248)", "sequence (Q07955 whole entry)": "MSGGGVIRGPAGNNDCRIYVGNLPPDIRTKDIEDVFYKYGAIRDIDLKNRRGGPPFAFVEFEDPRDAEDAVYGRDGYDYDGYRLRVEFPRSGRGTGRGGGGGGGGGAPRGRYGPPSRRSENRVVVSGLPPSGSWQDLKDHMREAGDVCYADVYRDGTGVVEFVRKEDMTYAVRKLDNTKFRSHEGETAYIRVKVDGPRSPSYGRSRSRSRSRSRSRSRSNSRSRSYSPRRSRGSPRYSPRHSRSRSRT", "experiment": "SPR; 100 nM RNA; SPR: 25 °C, 1:10 mixture of binding buffer (10 mM Tris-HCl pH 7.5, 150 mM KCl) and HBS-EP (10 mM HEPES pH 7.4, 150 mM NaCl, 3 mM EDTA, 0.005% P20), protein immobilized; pull-down: RNA on streptavidin beads blocked in 10 mM Tris-HCl pH 7.5, 100 mM KCl, 0.1 mM EDTA, 1 mM DTT, 0.01% Triton X-100, BSA, tRNA; extract 1 h at 30 °C, elution 400-2600 mM KCl", "details": "protein: recombinant; tags: N-terminal His-tag (pET28a); label: biotin; parallel G4, several variants possible"}, "EFHD2": {"target": "T1, EFHD2 (Homo sapiens, UniProt Q96C19 1-240)", "T1 sequence": "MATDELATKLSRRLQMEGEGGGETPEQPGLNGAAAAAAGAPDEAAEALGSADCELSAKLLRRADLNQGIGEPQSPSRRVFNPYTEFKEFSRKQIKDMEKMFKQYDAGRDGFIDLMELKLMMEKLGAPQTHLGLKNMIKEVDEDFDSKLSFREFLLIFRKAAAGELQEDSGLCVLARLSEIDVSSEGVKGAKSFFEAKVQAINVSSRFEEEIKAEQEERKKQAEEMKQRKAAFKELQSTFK", "experiment": "SPR; 100 nM RNA; SPR: 25 °C, 1:10 mixture of binding buffer (10 mM Tris-HCl pH 7.5, 150 mM KCl) and HBS-EP (10 mM HEPES pH 7.4, 150 mM NaCl, 3 mM EDTA, 0.005% P20), protein immobilized; pull-down: RNA on streptavidin beads blocked in 10 mM Tris-HCl pH 7.5, 100 mM KCl, 0.1 mM EDTA, 1 mM DTT, 0.01% Triton X-100, BSA, tRNA; extract 1 h at 30 °C, elution 400-2600 mM KCl", "details": "protein: recombinant; tags: N-terminal His-tag (pET28a); label: biotin; parallel G4, several variants possible"}, "[1]": {"details": "parallel G4, several variants possible"}}, "data": [{"binder": "AGCCGGGGGCUGGGCGGGGACCGGGCUUGU (structured_RNA, 3' biotin)", "note": "[ARPC2 GQ]", "values": [{"measurement": "Kd", "setting": "U2AF65; [1]", "value": 1, "unit": "nM"}, {"measurement": "Kd", "setting": "Δnucleolin; [1]", "value": 0.6, "unit": "nM"}, {"measurement": "binding result", "setting": "SRSF1", "value": "binds"}, {"measurement": "binding result", "setting": "EFHD2", "value": "binds"}]}, {"binder": "AACGAGAGAGAGAGAGAGAGAGAGAGA (ssRNA, 3' biotin)", "note": "[MMP16 mut]", "values": [{"measurement": "Kd", "setting": "Δnucleolin; no G4", "value": 0.6, "unit": "nM"}]}, {"binder": "AACGAGGGAGGGAGGGAGAGGGAGAGA (structured_RNA, 3' biotin)", "note": "[MMP16 GQ]", "values": [{"measurement": "Kd", "setting": "U2AF65; parallel G4 (CD, UV melting)", "value": 5, "unit": "nM"}, {"measurement": "Kd", "setting": "Δnucleolin; parallel G4 (CD, UV melting)", "value": 2, "unit": "nM"}]}, {"binder": "AGCCGUAGACUGAGCGAAGACCGAGCUUGU (ssRNA, 3' biotin)", "note": "[ARPC2 mut]", "values": [{"measurement": "Kd", "setting": "Δnucleolin; no G4", "value": 83, "unit": "nM"}]}]}
